Assay results: paper PMC9482650, “Quantitative fragmentomics allow affinity mapping of interactomes” (Nature Communications, 2022)

T1: MPP6, Q9NZW5
T1 sequence (Q9NZW5 125-219, limits assumed, looked up): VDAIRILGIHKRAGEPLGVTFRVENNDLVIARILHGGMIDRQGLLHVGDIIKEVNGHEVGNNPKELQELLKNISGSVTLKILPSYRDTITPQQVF

T2: LRRC7, Q96NW7
T2 sequence (Q96NW7 1440-1537, limits assumed, looked up): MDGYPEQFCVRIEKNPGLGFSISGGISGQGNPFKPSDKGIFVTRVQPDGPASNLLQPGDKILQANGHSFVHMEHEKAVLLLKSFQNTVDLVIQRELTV

T3: CARD11, Q9BXL7
T3 sequence (Q9BXL7 662-765, limits assumed, looked up): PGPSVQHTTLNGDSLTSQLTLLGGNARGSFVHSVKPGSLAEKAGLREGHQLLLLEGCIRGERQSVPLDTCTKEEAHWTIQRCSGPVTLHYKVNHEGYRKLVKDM

T4: RAPGEF6, Q8TEU7
T4 sequence (Q8TEU7 525-625, limits assumed, looked up): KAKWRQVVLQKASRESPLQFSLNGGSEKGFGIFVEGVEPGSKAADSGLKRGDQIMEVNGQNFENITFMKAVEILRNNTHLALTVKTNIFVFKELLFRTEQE

T5: RADIL, Q96JH8
T5 sequence (Q96JH8 971-1071, limits assumed, looked up): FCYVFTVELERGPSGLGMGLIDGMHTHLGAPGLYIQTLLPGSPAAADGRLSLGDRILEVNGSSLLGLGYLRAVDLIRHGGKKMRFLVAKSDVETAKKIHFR

T6: MPDZ_10, O75970
T6 sequence (O75970 1624-1722, limits assumed, looked up): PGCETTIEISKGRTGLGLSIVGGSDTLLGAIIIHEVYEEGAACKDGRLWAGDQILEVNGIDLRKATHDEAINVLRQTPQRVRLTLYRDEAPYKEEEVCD

T7: MPDZ_5, O75970
T7 sequence (O75970 695-796, limits assumed, looked up): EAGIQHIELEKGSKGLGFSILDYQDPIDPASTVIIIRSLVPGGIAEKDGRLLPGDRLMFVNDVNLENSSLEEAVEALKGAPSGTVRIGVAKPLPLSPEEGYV

T8: MPP7, Q5T2T1
T8 sequence (Q5T2T1 134-230, limits assumed, looked up): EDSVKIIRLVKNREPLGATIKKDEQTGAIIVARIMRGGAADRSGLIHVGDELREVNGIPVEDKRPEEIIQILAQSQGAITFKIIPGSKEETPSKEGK

T9: GRIP1_7, Q9Y3R0
T9 sequence (Q9Y3R0 999-1096, limits assumed, looked up): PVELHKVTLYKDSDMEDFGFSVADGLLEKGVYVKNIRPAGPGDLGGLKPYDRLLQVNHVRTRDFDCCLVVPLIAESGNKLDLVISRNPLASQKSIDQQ

T10: GRIP1_2, Q9Y3R0
T10 sequence (Q9Y3R0 145-248, limits assumed, looked up): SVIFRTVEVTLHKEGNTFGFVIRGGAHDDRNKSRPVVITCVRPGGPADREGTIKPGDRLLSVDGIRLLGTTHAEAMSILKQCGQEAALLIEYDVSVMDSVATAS

T11: DFNB31_1, Q9P202
T11 sequence (Q9P202 135-233, limits assumed, looked up): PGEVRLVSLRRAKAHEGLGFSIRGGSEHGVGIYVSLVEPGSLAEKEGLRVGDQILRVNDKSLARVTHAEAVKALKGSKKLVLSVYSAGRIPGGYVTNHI

B1: MYOZ3, Q8TDC0 (peptide)
chain: VRNLPESEEL
B2: SLC22A12, Q96S37 (peptide)
chain: GNSVLKSTQF

Each binder was assayed against FRMPD3, Q5JV73 (assay: holdup assay). Conditions: plain residues with an end cap or a label only (N-terminal biotin on a linker: ado-ado).
Sequence of FRMPD3, Q5JV73 (Q5JV73 12-100): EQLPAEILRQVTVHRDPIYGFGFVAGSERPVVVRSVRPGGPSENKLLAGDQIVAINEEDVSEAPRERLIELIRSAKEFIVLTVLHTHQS
Design: key: below the threshold = too weak to quantify, mostly under pKd 3.1 to 4

| Binder | pKd |
| --- | --- |
| B1 | below the threshold |
| B2 | below the threshold |

These binders were tested against T1, MPP6, Q9NZW5 (assay: holdup assay). Conditions: plain residues with an end cap or a label only (N-terminal biotin on a linker: ado-ado).
Design: key: below the threshold = too weak to quantify, mostly under pKd 3.1 to 4

| Binder | pKd |
| --- | --- |
| B1 | 3.64 |
| B2 | below the threshold |

What follows are binders tested against IL16_1, Q14005 (assay: holdup assay). Conditions: plain residues with an end cap or a label only (N-terminal biotin on a linker: ado-ado).
Sequence of IL16_1, Q14005 (Q14005 210-306): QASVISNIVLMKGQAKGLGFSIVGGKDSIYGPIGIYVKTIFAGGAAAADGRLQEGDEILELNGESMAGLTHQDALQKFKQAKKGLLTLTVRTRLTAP
Design: key: below the threshold = too weak to quantify, mostly under pKd 3.1 to 4

| Binder | pKd |
| --- | --- |
| B1 | below the threshold |
| B2 | below the threshold |

The binders below were run against DLG4_2, P78352 (assay: holdup assay). Conditions: plain residues with an end cap or a label only (N-terminal biotin on a linker: ado-ado).
Sequence of DLG4_2, P78352 (P78352 155-259): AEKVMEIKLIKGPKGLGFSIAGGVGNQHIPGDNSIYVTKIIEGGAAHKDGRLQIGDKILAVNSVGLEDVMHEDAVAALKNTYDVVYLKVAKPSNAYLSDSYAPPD
Design: key: below the threshold = too weak to quantify, mostly under pKd 3.1 to 4

| Binder | pKd |
| --- | --- |
| B1 | below the threshold |
| B2 | below the threshold |

Each binder was assayed against GOPC, Q9HD26 (assay: holdup assay). Conditions: plain residues with an end cap or a label only (N-terminal biotin on a linker: ado-ado).
Design: key: below the threshold = too weak to quantify, mostly under pKd 3.1 to 4

| Binder | pKd |
| --- | --- |
| B1 | below the threshold |
| B2 | below the threshold |

What follows are binders tested against T2, LRRC7, Q96NW7 (assay: holdup assay). Conditions: plain residues with an end cap or a label only (N-terminal biotin on a linker: ado-ado).
Design: key: below the threshold = too weak to quantify, mostly under pKd 3.1 to 4

| Binder | pKd |
| --- | --- |
| B1 | below the threshold |
| B2 | below the threshold |

These binders were tested against HTRA2, O43464 (assay: holdup assay). Conditions: plain residues with an end cap or a label only (N-terminal biotin on a linker: ado-ado).
Sequence of HTRA2, O43464 (O43464 355-458): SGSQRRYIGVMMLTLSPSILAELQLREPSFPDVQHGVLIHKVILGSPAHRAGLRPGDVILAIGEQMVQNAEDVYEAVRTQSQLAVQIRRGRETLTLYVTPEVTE
Design: key: below the threshold = too weak to quantify, mostly under pKd 3.1 to 4

| Binder | pKd |
| --- | --- |
| B1 | below the threshold |
| B2 | below the threshold |

The binders below were run against FRMPD2_2, Q68DX3 (assay: holdup assay). Conditions: plain residues with an end cap or a label only (N-terminal biotin on a linker: ado-ado).
Sequence of FRMPD2_2, Q68DX3 (Q68DX3 944-1038): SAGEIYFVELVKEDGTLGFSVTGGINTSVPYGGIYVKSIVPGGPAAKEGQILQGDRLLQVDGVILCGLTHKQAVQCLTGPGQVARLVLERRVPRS
Design: key: below the threshold = too weak to quantify, mostly under pKd 3.1 to 4

| Binder | pKd |
| --- | --- |
| B1 | below the threshold |
| B2 | below the threshold |

The binders below were run against MAGI2_5, Q86UL8 (assay: holdup assay). Conditions: plain residues with an end cap or a label only (N-terminal biotin on a linker: ado-ado).
Sequence of MAGI2_5, Q86UL8 (Q86UL8 915-1017): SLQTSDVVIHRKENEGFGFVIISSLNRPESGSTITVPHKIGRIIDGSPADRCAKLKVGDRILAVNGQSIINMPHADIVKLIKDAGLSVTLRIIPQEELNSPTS
Design: key: below the threshold = too weak to quantify, mostly under pKd 3.1 to 4

| Binder | pKd |
| --- | --- |
| B1 | below the threshold |
| B2 | 4.3 |

The binders below were run against T3, CARD11, Q9BXL7 (assay: holdup assay). Conditions: plain residues with an end cap or a label only (N-terminal biotin on a linker: ado-ado).
Design: key: below the threshold = too weak to quantify, mostly under pKd 3.1 to 4

| Binder | pKd |
| --- | --- |
| B1 | below the threshold |
| B2 | below the threshold |

The binders below were run against T4, RAPGEF6, Q8TEU7 (assay: holdup assay). Conditions: plain residues with an end cap or a label only (N-terminal biotin on a linker: ado-ado).
Design: key: below the threshold = too weak to quantify, mostly under pKd 3.1 to 4

| Binder | pKd |
| --- | --- |
| B1 | below the threshold |
| B2 | below the threshold |

These binders were tested against T5, RADIL, Q96JH8 (assay: holdup assay). Conditions: plain residues with an end cap or a label only (N-terminal biotin on a linker: ado-ado).
Design: key: below the threshold = too weak to quantify, mostly under pKd 3.1 to 4

| Binder | pKd |
| --- | --- |
| B1 | below the threshold |
| B2 | below the threshold |

The binders below were run against LDB3, O75112 (assay: holdup assay). Conditions: plain residues with an end cap or a label only (N-terminal biotin on a linker: ado-ado).
Sequence of LDB3, O75112 (O75112 1-94): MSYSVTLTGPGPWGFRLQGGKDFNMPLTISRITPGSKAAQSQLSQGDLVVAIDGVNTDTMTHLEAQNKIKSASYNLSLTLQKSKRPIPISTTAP
Design: key: below the threshold = too weak to quantify, mostly under pKd 3.1 to 4

| Binder | pKd |
| --- | --- |
| B1 | 5.19 |
| B2 | below the threshold |

What follows are binders tested against Inadl_4, Q8NI35 (assay: holdup assay). Conditions: plain residues with an end cap or a label only (N-terminal biotin on a linker: ado-ado).
Sequence of Inadl_4, Q8NI35 (Q8NI35 547-651): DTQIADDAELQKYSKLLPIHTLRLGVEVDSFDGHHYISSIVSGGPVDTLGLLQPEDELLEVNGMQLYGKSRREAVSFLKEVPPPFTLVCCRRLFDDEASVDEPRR
Design: key: below the threshold = too weak to quantify, mostly under pKd 3.1 to 4

| Binder | pKd |
| --- | --- |
| B1 | below the threshold |
| B2 | below the threshold |

Each binder was assayed against Inadl_2, Q8NI35 (assay: holdup assay). Conditions: plain residues with an end cap or a label only (N-terminal biotin on a linker: ado-ado).
Sequence of Inadl_2, Q8NI35 (Q8NI35 238-335): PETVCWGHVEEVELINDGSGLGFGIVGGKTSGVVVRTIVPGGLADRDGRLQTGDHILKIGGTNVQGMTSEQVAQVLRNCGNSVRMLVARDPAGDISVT
Design: key: below the threshold = too weak to quantify, mostly under pKd 3.1 to 4

| Binder | pKd |
| --- | --- |
| B1 | below the threshold |
| B2 | below the threshold |

The binders below were run against GRIP2_6, Q9C0E4 (assay: holdup assay). Conditions: plain residues with an end cap or a label only (N-terminal biotin on a linker: ado-ado).
Sequence of GRIP2_6, Q9C0E4 (Q9C0E4 648-740): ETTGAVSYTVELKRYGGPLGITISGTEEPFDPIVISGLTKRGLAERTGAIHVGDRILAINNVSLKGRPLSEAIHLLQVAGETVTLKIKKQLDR
Design: key: below the threshold = too weak to quantify, mostly under pKd 3.1 to 4

| Binder | pKd |
| --- | --- |
| B1 | below the threshold |
| B2 | below the threshold |

Each binder was assayed against T6, MPDZ_10, O75970 (assay: holdup assay). Conditions: plain residues with an end cap or a label only (N-terminal biotin on a linker: ado-ado).
Design: key: below the threshold = too weak to quantify, mostly under pKd 3.1 to 4

| Binder | pKd |
| --- | --- |
| B1 | below the threshold |
| B2 | below the threshold |

Each binder was assayed against MAGI3_2, Q5TCQ9 (assay: holdup assay). Conditions: plain residues with an end cap or a label only (N-terminal biotin on a linker: ado-ado).
Sequence of MAGI3_2, Q5TCQ9 (Q5TCQ9 398-503): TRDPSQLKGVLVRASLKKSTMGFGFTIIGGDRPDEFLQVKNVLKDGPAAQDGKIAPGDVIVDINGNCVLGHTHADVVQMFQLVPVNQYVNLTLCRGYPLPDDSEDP
Design: key: below the threshold = too weak to quantify, mostly under pKd 3.1 to 4

| Binder | pKd |
| --- | --- |
| B1 | below the threshold |
| B2 | below the threshold |

These binders were tested against T7, MPDZ_5, O75970 (assay: holdup assay). Conditions: plain residues with an end cap or a label only (N-terminal biotin on a linker: ado-ado).
Design: key: below the threshold = too weak to quantify, mostly under pKd 3.1 to 4

| Binder | pKd |
| --- | --- |
| B1 | below the threshold |
| B2 | below the threshold |

Each binder was assayed against NHERF4_1, Q86UT5-2 (assay: holdup assay). Conditions: plain residues with an end cap or a label only (N-terminal biotin on a linker: ado-ado).
Sequence of NHERF4_1, Q86UT5-2 (Q86UT5 other isoform, or with tags, fused parts or gaps): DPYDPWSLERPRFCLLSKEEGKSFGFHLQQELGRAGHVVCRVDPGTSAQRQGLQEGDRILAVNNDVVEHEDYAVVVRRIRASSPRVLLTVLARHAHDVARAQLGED
Design: key: below the threshold = too weak to quantify, mostly under pKd 3.1 to 4

| Binder | pKd |
| --- | --- |
| B1 | 4.3 |
| B2 | 4.1 |

Each binder was assayed against T8, MPP7, Q5T2T1 (assay: holdup assay). Conditions: plain residues with an end cap or a label only (N-terminal biotin on a linker: ado-ado).
Design: key: below the threshold = too weak to quantify, mostly under pKd 3.1 to 4

| Binder | pKd |
| --- | --- |
| B1 | below the threshold |
| B2 | below the threshold |

These binders were tested against T9, GRIP1_7, Q9Y3R0 (assay: holdup assay). Conditions: plain residues with an end cap or a label only (N-terminal biotin on a linker: ado-ado).
Design: key: below the threshold = too weak to quantify, mostly under pKd 3.1 to 4

| Binder | pKd |
| --- | --- |
| B1 | below the threshold |
| B2 | below the threshold |

The binders below were run against T10, GRIP1_2, Q9Y3R0 (assay: holdup assay). Conditions: plain residues with an end cap or a label only (N-terminal biotin on a linker: ado-ado).
Design: key: below the threshold = too weak to quantify, mostly under pKd 3.1 to 4

| Binder | pKd |
| --- | --- |
| B1 | below the threshold |
| B2 | below the threshold |

Each binder was assayed against T11, DFNB31_1, Q9P202 (assay: holdup assay). Conditions: plain residues with an end cap or a label only (N-terminal biotin on a linker: ado-ado).
Design: key: below the threshold = too weak to quantify, mostly under pKd 3.1 to 4

| Binder | pKd |
| --- | --- |
| B1 | below the threshold |
| B2 | 3.6 |

The binders below were run against MAST1, Q9Y2H9 (assay: holdup assay). Conditions: plain residues with an end cap or a label only (N-terminal biotin on a linker: ado-ado).
Sequence of MAST1, Q9Y2H9 (Q9Y2H9 962-1065): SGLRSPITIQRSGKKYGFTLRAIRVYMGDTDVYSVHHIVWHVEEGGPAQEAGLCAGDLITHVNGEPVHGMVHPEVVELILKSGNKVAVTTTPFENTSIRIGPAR
Design: key: below the threshold = too weak to quantify, mostly under pKd 3.1 to 4

| Binder | pKd |
| --- | --- |
| B1 | 4.11 |
| B2 | 4.26 |

What follows are binders tested against FRMPD4, Q14CM0 (assay: holdup assay). Conditions: plain residues with an end cap or a label only (N-terminal biotin on a linker: ado-ado).
Sequence of FRMPD4, Q14CM0 (Q14CM0 67-160): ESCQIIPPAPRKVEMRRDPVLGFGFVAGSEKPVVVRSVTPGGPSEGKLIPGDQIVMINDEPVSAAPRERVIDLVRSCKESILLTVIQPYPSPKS
Design: key: below the threshold = too weak to quantify, mostly under pKd 3.1 to 4

| Binder | pKd |
| --- | --- |
| B1 | 3.89 |
| B2 | below the threshold |
